Measurements published in patent US20230203155A1 (ALMAC DISCOVERY, published 2023).

T1: P3A1 his myc
T1 construct: VNAR; also called P3A1 6xHis myc
T1 VNAR: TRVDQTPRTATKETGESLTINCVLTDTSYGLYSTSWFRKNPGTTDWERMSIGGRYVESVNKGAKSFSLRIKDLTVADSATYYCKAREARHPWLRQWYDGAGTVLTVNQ

B1: Peptide 2 (peptide)
peptide: RSTIYGSRLRINLDTTDTGYFQ
notes: linear ROR1 ECD peptide; insoluble in PBS
B2: P3A1-P3A1-S-mal-vcMMAE (VNAR)
chain: TRVDQTPRTATKETGESLTINCVLTDTSYGLYSTSWFRKNPGTTDWERMSIGGRYVESVNKGAKSFSLRIKDLTVADSATYYCKAREARHPWLRQWYDGAGTVLTVNGGGGSGGGGSGGGGSGGGGSGGGGSTRVDQTPRTATKETGESLTINCVLTDTSYGLYSTSWFRKNPGTTDWERMSIGGRYVESVNKGAKSFSLRIKDLTVADSATYYCKAREARHPWLRQWYDGAGTVLTVNQASGAHHHHHHGAEFEQKLISEEDL
modifications: C-terminal thiol conjugated to MC vc PAB MMAE
B3: P3A1-P3A1-Ox-MMAE (VNAR)
chain: TRVDQTPRTATKETGESLTINCVLTDTSYGLYSTSWFRKNPGTTDWERMSIGGRYVESVNKGAKSFSLRIKDLTVADSATYYCKAREARHPWLRQWYDGAGTVLTVNGGGGSGGGGSGGGGSGGGGSGGGGSTRVDQTPRTATKETGESLTINCVLTDTSYGLYSTSWFRKNPGTTDWERMSIGGRYVESVNKGAKSFSLRIKDLTVADSATYYCKAREARHPWLRQWYDGAGTVLTVNQASGAHHHHHHGAEFEQKLISEEDL
modifications: C-terminal aminoxy oxime-linked to benzaldehyde PEG4 MMAE
B4: P3A1-P3A1-Ox-vcMMAE (VNAR)
chain: TRVDQTPRTATKETGESLTINCVLTDTSYGLYSTSWFRKNPGTTDWERMSIGGRYVESVNKGAKSFSLRIKDLTVADSATYYCKAREARHPWLRQWYDGAGTVLTVNGGGGSGGGGSGGGGSGGGGSGGGGSTRVDQTPRTATKETGESLTINCVLTDTSYGLYSTSWFRKNPGTTDWERMSIGGRYVESVNKGAKSFSLRIKDLTVADSATYYCKAREARHPWLRQWYDGAGTVLTVNQASGAHHHHHHGAEFEQKLISEEDL
modifications: C-terminal aminoxy oxime-linked to benzaldehyde PEG2 vc PAB MMAE
B5: B1G1-B1G1 HisMyc (VNAR)
chain: TRVDQSPSSLSASVGDRVTITCVLTGANYGLASTYWYRKNPGSSNKEQISISGRYSESVNKGTKSFTLTISSLQPEDSATYYCRAYPWGAGAPWLVQWYDGAGTKVEIKGGGGSGGGGSGGGGSGGGGSGGGGSTRVDQSPSSLSASVGDRVTITCVLTGANYGLASTYWYRKNPGSSNKEQISISGRYSESVNKGTKSFTLTISSLQPEDSATYYCRAYPWGAGAPWLVQWYDGAGTKVEIKQASGAHHHHHHGAEFEQKLISEEDL
notes: VNAR fusion
B6: BA11 (humanised HSA-binding VNAR) (VNAR)
VNAR: TRVDQSPSSLSASVGDRVTITCVLTDTSYPLYSTYWYRKNPGSSNKEQISISGRYSESVNKGTKSFTLTISSLQPEDSATYYCRAMSTNIWTGDGAGTKVEIK
notes: VNAR
B7: BA11-C term thiol-maleimide-peg-fluorescein (VNAR)
VNAR: TRVDQSPSSLSASVGDRVTITCVLTDTSYPLYSTYWYRKNPGSSNKEQISISGRYSESVNKGTKSFTLTISSLQPEDSATYYCRAMSTNIWTGDGAGTKVEIK
modifications: C-terminal thiol conjugated to maleimide-peg-fluorescein
notes: also called BA11-S-mal-Fl
B8: BA11-aminoxy (VNAR)
VNAR: TRVDQSPSSLSASVGDRVTITCVLTDTSYPLYSTYWYRKNPGSSNKEQISISGRYSESVNKGTKSFTLTISSLQPEDSATYYCRAMSTNIWTGDGAGTKVEIK
modifications: C-terminal aminoxy (intein cleavage with dioxyamine)
B9: BA11-C terminal cysteine-maleimide-peg-fluorescein (VNAR)
VNAR: TRVDQSPSSLSASVGDRVTITCVLTDTSYPLYSTYWYRKNPGSSNKEQISISGRYSESVNKGTKSFTLTISSLQPEDSATYYCRAMSTNIWTGDGAGTKVEIK
modifications: C-terminal cysteine conjugated to maleimide-peg-fluorescein
notes: also called BA11-cys-mal-Fl
B10: BA11 C-terminal thiol derivative (VNAR)
VNAR: TRVDQSPSSLSASVGDRVTITCVLTDTSYPLYSTYWYRKNPGSSNKEQISISGRYSESVNKGTKSFTLTISSLQPEDSATYYCRAMSTNIWTGDGAGTKVEIK
modifications: C-terminal thiol (intein cleavage with cysteamine)
notes: also called BA11-SH
B11: BA11-oxime-fluorescein (VNAR)
VNAR: TRVDQSPSSLSASVGDRVTITCVLTDTSYPLYSTYWYRKNPGSSNKEQISISGRYSESVNKGTKSFTLTISSLQPEDSATYYCRAMSTNIWTGDGAGTKVEIK
modifications: C-terminal oxime-linked benzaldehyde-peg-fluorescein
B12: BA11 C-terminal cysteine derivative (VNAR)
VNAR: TRVDQSPSSLSASVGDRVTITCVLTDTSYPLYSTYWYRKNPGSSNKEQISISGRYSESVNKGTKSFTLTISSLQPEDSATYYCRAMSTNIWTGDGAGTKVEIK
modifications: additional C-terminal cysteine (intein cleavage with cysteine)
notes: also called BA11-cys
B13: E7 (VNAR)
VNAR: TRVDQTPRTATKETGESLTINCVVTGAKYGLAATYWYRKNPGSSNQERISISGRYVESVNKRTMSFSLRIKDLTVADSATYYCKAYPWAMWGQWYDGAGTVLTVN
notes: also called E7 phage clone; E7 monoclonal phage
B14: P3A1 (VNAR)
VNAR: TRVDQTPRTATKETGESLTINCVLTDTSYGLYSTSWFRKNPGTTDWERMSIGGRYVESVNKGAKSFSLRIKDLTVADSATYYCKAREARHPWLRQWYDGAGTVLTVN
notes: also called P3A1 phage clone; P3A1 monoclonal phage

Experiments:
[1] = target: T2, D3 his myc; assay: competition ELISA: D3 pre-incubated with peptide, residual binding to coated huROR1-Fc
T2 construct: VNAR; made in E. coli and in HEK293 (expression system under assay); also called D3 WT

[2] = target: T1, P3A1 his myc; assay: competition ELISA: P3A1 pre-incubated with peptide, residual binding to coated huROR1-Fc
Description: (§1) In brief, ELISA method as follows. Wells coated with 100 ng antigen and incubated, covered, at room temperature for 2 hr. Plates washed 3×400 ul per well with PBST (PBS+0.05% Tween 20 (v/v)), then blocked with 4% skimmed milk powder (w/v) in PBST for 1 hour at 37° C. Plates washed as before plus additional wash in PBS alone. Binding proteins were diluted in 4% milk PBST and incubated overnight at 4° C. Plates washed 3× with PBST, 3×PBS and binding detected using appropriate secondary detection antibody in 4% milk PBST, room temperature 1 hour. […] Rabbit anti-Mouse IgG H&L, HRP (Abcam #ab97046) [0360] Mouse anti-polyHis, HRP (Sigma #A7058)
(§2) Competition assays were conducted as described in the methods with all four peptides reconstituted in PBS.

[3] = target: T3, B1 VNAR with C-terminal His6Myc tag; assay: competition ELISA: B1 pre-incubated with peptide, residual binding to coated huROR1-Fc
T3 construct: VNAR, E. coli; also called B1 his myc; B1HisMyc monomer
Description: as §1, §2

[4] = target: T4, D3-[G4S]5-D3 his myc; assay: competition ELISA: D3-D3 pre-incubated with peptide, residual binding to coated huROR1-Fc
T4 construct: VNAR homodimer by genetic fusion; also called D3-D3; D3 dimer

[5] = target: T5, human ROR2-hFc fusion protein (extracellular domain) (human); assay: SPR, ROR2-hFc on chip
T5 construct: Whole entry 'human ROR2-Fc (CHO)'; also called hROR2
Description: (§3) Binding kinetics were determined using a Pioneer Surface Plasmon Resonance (SPR) instrument (SensiQ/Pall ForteBio). […] VNARs and VNAR-Fc molecules were tested at various concentrations and the Ka (M⁻¹s⁻¹), Kd (s⁻¹) and KD (nM) values were determined using QDat software (SensiQ/Pall ForteBio).
(§4) The ability of the VNAR-MMAE conjugates and VNAR-fluorescein conjugates to bind to human ROR1 ECD was determined by SPR using the procedures described above.

[6] = target: T6, human ROR1-hFc fusion protein (extracellular domain) (human); assay: SPR, ROR1-hFc on chip
T6 construct: Whole entry 'human ROR1-Fc (CHO)'; also called hROR1; huROR1-Fc
Description: as §3, §4

[7] = target: T7, human ROR1 on the surface of ROR1hi human cancer cell lines (human, UniProt Q01973 30-937); assay: flow cytometry, A549 (ROR1hi) cells, 4°C
T7 construct: whole, on cells; Cell line is named under assay; also called cell surface ROR1

[8] = target: T8, mouse serum albumin (mouse, UniProt P07724 25-608); assay: SPR, albumin on chip, pH 7.4;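 further: Human, mouse, rat and cynomolgus serum albumins amine-coupled to carboxyl sensor chips, with a hen egg lysozyme surface measured in parallel as negative control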
T8 construct: also called MSA
Description: (§5) Binding kinetics were determined using SPR. The serum albumins or negative control protein were immobilised to COOH₂ chips by amine coupling using optimised buffer conditions as follows: —Human serum albumin (HSA) and mouse serum albumin (MSA) were immobilised in sodium acetate pH5 buffer. Rat serum albumin (RSA) and cynomolgous serum albumin (CSA) in sodium acetate pH 4.5 buffer and the negative control hen egg lysozyme (HEL) protein was immobilised in sodium acetate pH 5.5 buffer.
(§6) For each analyte test experiment, binding to the chosen serum albumin protein was assayed alongside the negative control protein (HEL).

[9] = target: T9, rat serum albumin (rat, UniProt P02770 25-608); assay: SPR, albumin on chip, pH 7.4;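 further: Human, mouse, rat and cynomolgus serum albumins amine-coupled to carboxyl sensor chips, with a hen egg lysozyme surface measured in parallel as negative control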
T9 construct: also called RSA
Description: as §5, §6

[10] = target: T10, human serum albumin (human, UniProt P02768 25-609); assay: SPR, albumin on chip, pH 7.4;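 further: Human, mouse, rat and cynomolgus serum albumins amine-coupled to carboxyl sensor chips, with a hen egg lysozyme surface measured in parallel as negative control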
T10 construct: also called HSA
Description: as §5, §6

[11] = target: T11, cynomolgous serum albumin (cynomolgous, UniProt A2V9Z4 25-608); assay: SPR, albumin on chip, pH 7.4;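 further: Human, mouse, rat and cynomolgus serum albumins amine-coupled to carboxyl sensor chips, with a hen egg lysozyme surface measured in parallel as negative control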
T11 construct: also called CSA; Cyano
Description: as §5, §6

[12] = target: T8, mouse serum albumin; assay: SPR, albumin on chip, pH 5.5;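 further: albumins amine-coupled onto carboxyl SPR chips, with each analyte also run over a hen egg lysozyme surface as negative control, Kd derived from binding kinetics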
Description: as §5, §6

[13] = target: T9, rat serum albumin; assay: SPR, albumin on chip, pH 5.5;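 further: albumins amine-coupled onto carboxyl SPR chips, with each analyte also run over a hen egg lysozyme surface as negative control, Kd derived from binding kinetics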
Description: as §5, §6

[14] = target: T10, human serum albumin; assay: SPR, albumin on chip, pH 5.5;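 further: albumins amine-coupled onto carboxyl SPR chips, with each analyte also run over a hen egg lysozyme surface as negative control, Kd derived from binding kinetics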
Description: as §5, §6

[15] = target: T11, cynomolgous serum albumin; assay: SPR, albumin on chip, pH 5.5;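 further: albumins amine-coupled onto carboxyl SPR chips, with each analyte also run over a hen egg lysozyme surface as negative control, Kd derived from binding kinetics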
Description: as §5, §6

[16] = target: T5, human ROR2-hFc fusion protein …; assay: monoclonal phage ELISA on coated ROR2-Fc

T11 sequence (A2V9Z4 25-608 limits assumed): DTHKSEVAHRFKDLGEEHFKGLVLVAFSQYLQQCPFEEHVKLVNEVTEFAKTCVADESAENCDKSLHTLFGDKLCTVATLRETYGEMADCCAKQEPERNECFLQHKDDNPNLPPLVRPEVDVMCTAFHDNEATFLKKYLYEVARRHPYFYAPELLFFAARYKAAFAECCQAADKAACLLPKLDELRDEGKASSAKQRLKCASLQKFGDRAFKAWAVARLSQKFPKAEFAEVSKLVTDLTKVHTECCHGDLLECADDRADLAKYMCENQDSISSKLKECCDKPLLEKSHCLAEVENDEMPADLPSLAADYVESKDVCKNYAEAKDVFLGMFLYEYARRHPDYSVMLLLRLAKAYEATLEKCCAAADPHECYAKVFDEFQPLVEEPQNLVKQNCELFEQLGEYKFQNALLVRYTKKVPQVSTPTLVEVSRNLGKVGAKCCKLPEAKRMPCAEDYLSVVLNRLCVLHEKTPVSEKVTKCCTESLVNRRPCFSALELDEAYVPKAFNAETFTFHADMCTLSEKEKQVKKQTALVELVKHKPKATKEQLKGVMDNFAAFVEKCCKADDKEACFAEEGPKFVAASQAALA
T6 sequence (chain, as listed by the source limits assumed): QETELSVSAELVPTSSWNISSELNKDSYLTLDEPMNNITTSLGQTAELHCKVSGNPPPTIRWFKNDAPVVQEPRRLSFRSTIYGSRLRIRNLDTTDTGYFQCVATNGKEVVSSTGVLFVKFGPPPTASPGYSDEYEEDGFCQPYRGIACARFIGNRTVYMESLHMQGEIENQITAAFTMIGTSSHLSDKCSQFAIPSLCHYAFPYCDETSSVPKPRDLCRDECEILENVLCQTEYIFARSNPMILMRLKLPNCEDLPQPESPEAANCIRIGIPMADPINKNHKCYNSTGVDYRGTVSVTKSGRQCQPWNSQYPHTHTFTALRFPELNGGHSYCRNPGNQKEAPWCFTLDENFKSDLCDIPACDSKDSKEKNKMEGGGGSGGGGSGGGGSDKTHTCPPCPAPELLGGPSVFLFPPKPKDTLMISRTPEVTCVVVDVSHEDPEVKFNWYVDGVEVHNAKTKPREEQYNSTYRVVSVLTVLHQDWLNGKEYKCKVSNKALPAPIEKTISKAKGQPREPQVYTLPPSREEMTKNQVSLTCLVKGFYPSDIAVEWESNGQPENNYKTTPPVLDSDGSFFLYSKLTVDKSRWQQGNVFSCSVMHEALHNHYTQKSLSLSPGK
T5 sequence (chain, as listed by the source limits assumed): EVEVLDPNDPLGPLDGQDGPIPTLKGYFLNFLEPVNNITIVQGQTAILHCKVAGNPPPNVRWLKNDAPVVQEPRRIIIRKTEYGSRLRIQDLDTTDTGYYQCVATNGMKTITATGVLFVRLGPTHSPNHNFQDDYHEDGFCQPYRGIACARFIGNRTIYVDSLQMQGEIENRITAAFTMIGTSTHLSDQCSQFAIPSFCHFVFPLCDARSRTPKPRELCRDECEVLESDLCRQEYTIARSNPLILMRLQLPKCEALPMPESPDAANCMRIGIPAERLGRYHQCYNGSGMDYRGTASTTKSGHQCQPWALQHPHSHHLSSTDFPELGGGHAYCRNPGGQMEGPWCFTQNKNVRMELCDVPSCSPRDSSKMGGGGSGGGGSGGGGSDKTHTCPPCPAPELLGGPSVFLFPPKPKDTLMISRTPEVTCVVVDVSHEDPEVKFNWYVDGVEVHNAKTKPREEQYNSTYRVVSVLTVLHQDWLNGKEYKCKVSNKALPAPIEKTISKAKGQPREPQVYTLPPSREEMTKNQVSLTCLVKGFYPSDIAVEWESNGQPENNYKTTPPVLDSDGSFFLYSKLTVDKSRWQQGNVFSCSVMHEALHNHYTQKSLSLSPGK
T8 sequence (P07724 25-608 limits assumed): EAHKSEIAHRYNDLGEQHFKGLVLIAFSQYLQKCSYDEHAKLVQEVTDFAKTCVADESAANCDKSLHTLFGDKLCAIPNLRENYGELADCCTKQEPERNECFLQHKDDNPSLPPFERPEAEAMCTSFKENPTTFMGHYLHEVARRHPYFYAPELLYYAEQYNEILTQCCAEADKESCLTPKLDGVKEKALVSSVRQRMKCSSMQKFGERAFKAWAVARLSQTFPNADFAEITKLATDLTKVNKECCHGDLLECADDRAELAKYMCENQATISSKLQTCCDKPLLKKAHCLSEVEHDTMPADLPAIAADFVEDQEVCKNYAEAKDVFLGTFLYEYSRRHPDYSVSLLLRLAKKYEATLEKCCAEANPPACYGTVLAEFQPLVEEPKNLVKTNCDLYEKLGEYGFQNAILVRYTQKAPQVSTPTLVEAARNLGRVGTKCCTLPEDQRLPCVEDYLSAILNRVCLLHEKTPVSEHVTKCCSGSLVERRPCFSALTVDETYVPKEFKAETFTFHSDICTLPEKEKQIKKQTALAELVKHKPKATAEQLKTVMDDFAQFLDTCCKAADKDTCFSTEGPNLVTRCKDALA
T9 sequence (P02770 25-608 limits assumed): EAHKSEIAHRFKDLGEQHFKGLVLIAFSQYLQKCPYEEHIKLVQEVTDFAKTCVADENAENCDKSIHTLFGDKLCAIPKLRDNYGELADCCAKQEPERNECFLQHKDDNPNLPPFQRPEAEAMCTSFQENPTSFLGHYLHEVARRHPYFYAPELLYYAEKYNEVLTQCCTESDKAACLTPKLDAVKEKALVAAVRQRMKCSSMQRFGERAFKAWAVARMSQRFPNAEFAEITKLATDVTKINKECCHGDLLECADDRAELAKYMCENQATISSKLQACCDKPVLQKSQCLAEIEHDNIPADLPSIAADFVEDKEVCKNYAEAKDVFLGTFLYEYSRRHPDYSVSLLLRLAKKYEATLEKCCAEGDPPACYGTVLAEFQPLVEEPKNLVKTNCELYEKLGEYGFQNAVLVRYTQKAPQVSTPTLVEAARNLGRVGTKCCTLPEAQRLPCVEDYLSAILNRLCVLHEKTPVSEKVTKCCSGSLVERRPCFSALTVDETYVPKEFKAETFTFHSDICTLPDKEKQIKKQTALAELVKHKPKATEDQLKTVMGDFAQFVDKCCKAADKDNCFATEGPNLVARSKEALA

| Binder | Kd [8] [nM] | Kd [9] [nM] | Kd [10] [nM] | Kd [11] [nM] | Kd [12] [nM] | Kd [13] [nM] | Kd [14] [nM] | also measured |
| --- | --- | --- | --- | --- | --- | --- | --- | --- |
| B1 |  |  |  |  |  |  |  | binding result [1]: no binding; binding result [2]: no binding (tested: about 500 uM as the axis is labelled); binding result [3]: no binding (tested: 10 uM); binding result [4]: no binding |
| B2 |  |  |  |  |  |  |  | binding result [5]: no binding; Kd [6]: 0.59 nM; koff [6]: 0.0026 s⁻¹; kon [6]: 4.96e+06 M⁻¹ s⁻¹ |
| B3 |  |  |  |  |  |  |  | binding result [5]: no binding; Kd [6]: 0.78 nM; koff [6]: 0.0032 s⁻¹; kon [6]: 4.2e+06 M⁻¹ s⁻¹ |
| B4 |  |  |  |  |  |  |  | binding result [5]: no binding; Kd [6]: 1.43 nM; koff [6]: 0.00277 s⁻¹; kon [6]: 2.07e+06 M⁻¹ s⁻¹ |
| B5 |  |  |  |  |  |  |  | Median YL1-PE [7]: 1470 |
| B6 | 1.9 | 2.97 | 0.636 | 3.36 | 4.8 | 4.39 | 0.91 | Kd [15]: 1.11 nM |
| B7 | 5 | 5.3 | 1.42 | 2.3 | 10.6 | 7.92 | 1.91 | Kd [15]: 7.01 nM |
| B8 | 8.77 | 10.8 | 1.12 | 7.97 | 21.2 |  |  |  |
| B9 | 5.06 | 4.78 | 1.1 | 3.68 | 13.6 | 7.24 | 3.16 | Kd [15]: 8.21 nM |
| B10 | 4.76 | 7.67 | 0.774 | 3.41 | 11.1 | 12.1 | 2.23 | Kd [15]: 6.74 nM |
| B11 | 4.24 | 5.72 | 0.677 | 1.75 | 7.44 | 5.93 | 1.3 | Kd [15]: 5.54 nM |
| B12 |  | 3.37 | 0.756 | 2.1 | 3.77 | 3.21 | 1.96 |  |
| YMESLHMQGEIENQI (linear ROR1 ECD peptide) [Peptide 1] |  |  |  |  |  |  |  | binding result [1]: no binding; binding result [2]: no binding (tested: about 500 uM as the axis is labelled); binding result [3]: no binding (tested: 10 uM); binding result [4]: no binding |
| QCVATNGKEVVSSTGVLFVKFGPPPTASPGYSDEYE (linear ROR1 ECD peptide) [Peptide 4] |  |  |  |  |  |  |  | binding result [1]: no binding; binding result [2]: no binding (tested: about 500 uM as the axis is labelled); binding result [3]: no binding (tested: 10 uM); binding result [4]: no binding |
| B13 |  |  |  |  |  |  |  | binding result [16]: no binding |
| B14 |  |  |  |  |  |  |  | binding result [16]: no binding |
| CQPWNSQYPHTHTFTALRFP (linear ROR1 ECD peptide) [Peptide 3] |  |  |  |  |  |  |  | binding result [1]: no binding; binding result [2]: no binding (tested: about 500 uM as the axis is labelled); binding result [3]: no binding (tested: 10 uM); binding result [4]: no binding |
